The target in assay [1] is T1, ROR1 Ig-like+Frizzled (Fz) domains, on transduced SUP-T1 cells (UniProt Q01973 30-299, limits assumed).
T1 construct: domain: Ig-like+Frizzled (Fz); also called Ig-Fz protein
The assay is described as follows: flow cytometry, transduced SUP-T1 cells, anti-human Fc-Dylight647. How it is done: (§1) FIG. 1A-FIG. 1C: Identification of ROR1 binding domain: FIG. 1A: SUP-T1 cells were transduced with retroviral vectors containing either the full extracellular portion of ROR1 or only one or two extracellular domains. Non-transduced SUP-T1 (SUP-T1 NT) cells served as negative control. FIG. 1B: All 12 chimeric antibodies and FIG. 1C all 10 positive clones in scFv format were incubated with SUP-T1 NT and the new stable cell lines at 4° C. for 30 min. Cells were washed and stained with a secondary antibody (anti-human Fc-Dylight647), which was used as negative control. eROR1=extracellular ROR1, Ig-like=Immunoglobulin-like domain, Fz=Frizzled domain, Kg=Kringle domain.
(Flow cytometry measures light scatter and fluorescence of single cells or particles in a stream.)

Assay [2] deals with T2, ROR1, full extracellular region, on transduced SUP-T1 cells (UniProt Q01973 30-406).
T2 construct: extracellular domain; also called eROR1; extracellular ROR1
The assay is described as above. As for the experimental part: as §1

For a further assay, the target named is T3, Fz+Kg (human, UniProt Q01973).
T3 construct: also called ROR1 Frizzled+Kringle domains, on transduced SUP-T1 cells
Described as above. How it is done:
as §1

Assay [3] has as its target T4, ROR1 Ig-like domain alone, on transduced SUP-T1 cells (human, UniProt Q01973 30-147, limits assumed).
T4 construct: domain: Ig-like; also called immunoglobulin domain
The assay is described as above. How it is done:
as §1

The target in assay [4] is T5, ROR1 Frizzled domain alone, on transduced SUP-T1 cells (human, UniProt Q01973 165-299).
T5 construct: domain: Fz; also called Fz; ROR1-Fz domain
The description is as above. How it is done: as §1

A further assay deals with T6, Kringle (Kg) (human, UniProt Q01973).
T6 construct: also called ROR1 Kringle domain alone, on transduced SUP-T1 cells
The description is as above. How it is done:
as §1

A further assay concerns the target T7, SKW 6.4 GFP (human, UniProt Q01973).
T7 construct: on the cell surface; also called ROR1 endogenously expressed on SKW 6.4 cells
The assay is described as follows: flow cytometry, SKW 6.4 GFP cells stained at 4 C, anti-human Fc-Dylight 647. As for the experimental part: FIG. 8A-FIG. 8C: Internalisation of ROR1 antibodies on SKW 6.4 GFP cells by flow cytometry. SKW 6.4 GFP cells were stained at 4° C. and either kept on ice (blue line) or incubated at 37° C. (yellow line) for 1 h. […] Clones A, F and Mu (purple circle) were selected for further investigation. Clones R12 and 4a5 (in black) served as negative and positive control, respectively. Anti-human Fc-Dylight 647 was used as secondary antibody and as staining control (red line). MFI=Median Fluorescence Intensity.
After 30 min, cells were washed with ice-cold PBS, and either left on ice or incubated at 37° C. for 1 h. Subsequent staining with an anti-human Fc-Dylight 647 was used to detect any primary antibody that had remained on the cell surface. Previously reported clones R12 and 4a5 were also included in this assay as negative and positive controls, respectively (FIG. 8).

The target in the next assay is T8, CLL2 ROR1high (human, UniProt Q01973).
T8 construct: on the cell surface; also called ROR1 on primary CLL cells with high ROR1
The assay is described as follows: flow cytometry, cells stained at 4 C, ahFc-DyLight647. How it is done:
FIG. 9A-FIG. 9C: Internalisation of ROR1 MAbs on SKW 6.4 GFP and CLL cells by flow cytometry. Cells were stained at 4° C. and either left on ice or incubated at 37° C. for 15 min, 1 h and 2 h. Cells were then analysed using an anti-human IgG as secondary antibody. FIG. 9A-FIG. 9B: Histograms and FIG. 9C: Trends over time showing the MFI reduction over time are presented. The % of MFI reduction was calculated as described in the Materials and Methods chapter. Phenylarsine oxide (PAO), an endocytosis inhibitor, acted as negative control (PAO-120).
To distinguish between dissociation and internalisation, SKW 6.4 cells were incubated on ice in the presence of our selected antibodies for 30 min. Cells were then washed with ice-cold PBS and either left on ice or incubated at 37° C. for 15 min, 1 h or 2 h. For the 2 h time point, a duplicate sample was incubated with PAO (10 μM). Immediately after incubation, all samples were washed with ice-cold PBS and stained with an anti-human Fc-Dylight 647 for 30 min. Cells were analysed by flow cytometry and MFI reduction was calculated.
Samples were processed as mentioned above and analysed by flow cytometry. […] This was even clearer on CLL cells, where virtually no internalisation of clone V was detected.

Assay [5] concerns the target T9, ROR1 Fz domain with Q(261)H and I(254)V, on transduced SUP-T1 cells (human, UniProt Q01973 165-299).
T9 construct: domain: Fz
Briefly: flow cytometry on SUP-T1 cells transduced with mutated ROR1 Fz domain.

The next assay deals with Q(261)H mutation (human, UniProt Q01973). Briefly: flow cytometry, Q(261)H-transduced SUP-T1 cells (eGFP), DyLight647. How it is done: FIG. 6A-FIG. 6D: Epitope mapping of ROR1 clone F MAb. FIG. 6A-FIG. 6B: Reactivity of clone F with ROR1-derived overlapping peptides was analyzed by ELISA. Since no linear epitope was identified, FIG. 6C-FIG. 6D: amino acid substitution of non-conserved regions within the Fz domain was performed in ROR1-Fz transduced cell lines. Circles indicate essential amino acids for antibody binding. One out of three experiments is shown. Experiments were done in triplicates. Error bars represent SD.
(§2) Retroviral vectors were used for transducing SUP-T1 cells and transduction was tested by GFP expression using flow cytometry.

Assay [6] concerns the target T10, Histidine-tagged ROR1 protein (extracellular region) (UniProt Q01973 30-406).
T10 construct: extracellular domain; also called extracellular portion of ROR1 bearing a Histidine tag; not shown: Histidine tag
Briefly: SPR, Biacore X100; antibody captured by anti-human IgG1 on CM5 chip, His-tagged ROR1 extracellular portion injected at 1.5-100 nM. As for the experimental part:
FIG. 3: KD determination by surface plasmon resonance. Sensorgrams obtained using a Biacore X100 instrument are shown. Briefly, ROR1 antibodies were immobilized using a CM5 chip and seven different concentrations of the Histidine-tagged ROR1 protein (extracellular region) were injected. Concentrations ranged from […].
We undertook surface plasmon resonance evaluation using a Biacore X100 instrument. ROR1 chimeric antibodies were immobilised using an anti-human IgG1 antibody capture kit and a CM5 sensor chip. Seven different concentrations, ranging from 1.5-100 nM, of the extracellular portion of ROR1 bearing a Histidine tag were then injected.
A general note: In SPR one partner is held on a chip, and binding of the other changes the refractive index at the surface.

Assay [7] has as its target T2, ROR1, full extracellular region, on …. Briefly: flow cytometry, ROR1-transduced cells, single staining; Q1 = ahFc+ only; amFc+ahFc alone Q1 0.060. The source says:
FIG. 7A-FIG. 7C: Competition assay by flow cytometry. Clone A (SA1) in murine IgG2a, k (mSA1) along with other ROR1 MAbs in human IgG1, k-including previously published 4a5, D10 and R12 clones—were used for staining ROR1-transduced cells. MAb staining was done as FIG. 7A-FIG. 7B: single agents or FIG. 7C: in combination with clone A (mSA1). Anti-human IgG (450) and anti-mouse IgG (DyLight649) were used as secondary antibodies. Combined staining using clones F and mSA1 acted as negative control for overlapping epitopes.
In FIG. 7C, three different columns are presented. Dot plots on the first column correspond to ROR1 binding assessed when SUP-T1 ROR1 cells were stained with clone A (SA1) (mIgG) in the first instance. After a washing step, cells were stained with a competitor antibody (hIgG), followed by another washing step. Both antibodies were then detected by a third staining step using the appropriate secondary antibodies. In the second column, a similar approach was taken when staining these cells, except that this time it was the antibody in hIgG1, k format the one used for the first staining step, followed by clone A (SA1) staining. On the third column, both antibodies were used at the same time.

For another assay, the target named is T11, I(48)Q mutation (human, UniProt Q01973).
T11 construct: The text speaks of the Ig-like domain; the axis on sheet D00010 reads ROR1 Ig-like+Fz+Kg; also called ROR1 with I(48)Q in the Ig-like domain, on transduced SUP-T1 cells
The assay is described as follows: flow cytometry, I(48)Q-transduced cells (eGFP), DyLight647. How it is done: FIG. 5A-FIG. 5H: Epitope mapping of ROR1 clone A MAb. FIG. 5A-FIG. 5B: Reactivity of clone A with ROR1-derived overlapping peptides was analyzed by ELISA. FIG. 5C-FIG. 5H: Amino acid substitution within the epitope binding region was performed in ROR1-transduced cell lines. Also, the previously described clones R12, 4a5 and D10 were also included for comparison. Red circles indicate essential amino acids for antibody binding. One out of three experiments is shown. Experiments were done in triplicates. Error bars represent SD.
as §2

Assay [8] has as its target T12, ROR1 Ig-like domain with NISSE at residues 47 to 51 replaced by FQDDL, on transduced SUP-T1 cells (human, UniProt Q01973 30-147, limits assumed).
T12 construct: domain: Ig-like; also called five amino acid substitution
The assay is described as follows: flow cytometry on SUP-T1 cells transduced with mutated ROR1 Ig-like domain.

T4 sequence (Q01973 30-147 limits assumed): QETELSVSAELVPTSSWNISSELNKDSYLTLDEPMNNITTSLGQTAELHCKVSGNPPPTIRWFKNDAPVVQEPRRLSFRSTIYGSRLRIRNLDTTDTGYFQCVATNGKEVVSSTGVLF
T5 sequence (Q01973 165-299): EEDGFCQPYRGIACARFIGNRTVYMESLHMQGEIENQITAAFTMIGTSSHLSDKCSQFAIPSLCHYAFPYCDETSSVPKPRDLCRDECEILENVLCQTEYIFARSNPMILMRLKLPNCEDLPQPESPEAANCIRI
T6 sequence (Q01973 312-391 limits assumed): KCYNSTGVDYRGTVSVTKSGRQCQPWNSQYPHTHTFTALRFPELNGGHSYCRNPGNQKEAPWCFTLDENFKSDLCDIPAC
T2 sequence (Q01973 30-406): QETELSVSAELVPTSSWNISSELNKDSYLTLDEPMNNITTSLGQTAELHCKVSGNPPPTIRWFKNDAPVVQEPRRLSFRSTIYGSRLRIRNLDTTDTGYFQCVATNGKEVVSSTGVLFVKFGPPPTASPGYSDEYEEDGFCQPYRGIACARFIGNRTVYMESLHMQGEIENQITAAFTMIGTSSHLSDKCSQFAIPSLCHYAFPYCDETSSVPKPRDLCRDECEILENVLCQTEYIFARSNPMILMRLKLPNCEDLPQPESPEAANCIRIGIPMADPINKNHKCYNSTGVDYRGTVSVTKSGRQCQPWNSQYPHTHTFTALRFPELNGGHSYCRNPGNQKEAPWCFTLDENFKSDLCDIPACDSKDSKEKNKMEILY
T10 sequence (Q01973 30-406): as above
T3 sequence (Q01973 165-391 limits assumed): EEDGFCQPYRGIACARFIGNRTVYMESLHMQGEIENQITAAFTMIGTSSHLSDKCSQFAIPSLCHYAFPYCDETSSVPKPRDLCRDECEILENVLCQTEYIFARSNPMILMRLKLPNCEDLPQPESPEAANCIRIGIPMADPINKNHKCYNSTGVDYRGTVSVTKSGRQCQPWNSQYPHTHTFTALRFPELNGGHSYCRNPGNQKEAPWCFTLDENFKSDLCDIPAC
T1 sequence (Q01973 30-299 limits assumed): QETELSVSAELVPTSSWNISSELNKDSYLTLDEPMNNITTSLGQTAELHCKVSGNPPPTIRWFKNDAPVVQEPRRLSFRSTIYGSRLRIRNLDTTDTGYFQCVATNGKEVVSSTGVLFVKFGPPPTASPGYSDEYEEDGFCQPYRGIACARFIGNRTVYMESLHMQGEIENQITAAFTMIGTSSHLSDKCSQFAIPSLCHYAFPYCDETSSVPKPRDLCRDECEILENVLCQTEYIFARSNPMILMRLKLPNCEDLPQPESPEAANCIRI
Chain of Q(261)H mutation (Q01973 165-299 Q261H limits assumed): as the sequence (Q01973 165-299) above, with Q97H counted along it
T12 sequence (Q01973 other isoform, or with tags, fused parts or gaps limits assumed): as the sequence (Q01973 30-147 limits assumed) above, with N18F, I19Q, S20D, S21D, E22L counted along it
T9 sequence (Q01973 165-299 I254V/Q261H): as the sequence (Q01973 165-299) above, with I90V, Q97H counted along it
T11 sequence (Q01973 other isoform, or with tags, fused parts or gaps limits assumed): as the sequence (Q01973 30-406) above, with I19Q counted along it
T8 sequence (Q01973 30-937 limits assumed): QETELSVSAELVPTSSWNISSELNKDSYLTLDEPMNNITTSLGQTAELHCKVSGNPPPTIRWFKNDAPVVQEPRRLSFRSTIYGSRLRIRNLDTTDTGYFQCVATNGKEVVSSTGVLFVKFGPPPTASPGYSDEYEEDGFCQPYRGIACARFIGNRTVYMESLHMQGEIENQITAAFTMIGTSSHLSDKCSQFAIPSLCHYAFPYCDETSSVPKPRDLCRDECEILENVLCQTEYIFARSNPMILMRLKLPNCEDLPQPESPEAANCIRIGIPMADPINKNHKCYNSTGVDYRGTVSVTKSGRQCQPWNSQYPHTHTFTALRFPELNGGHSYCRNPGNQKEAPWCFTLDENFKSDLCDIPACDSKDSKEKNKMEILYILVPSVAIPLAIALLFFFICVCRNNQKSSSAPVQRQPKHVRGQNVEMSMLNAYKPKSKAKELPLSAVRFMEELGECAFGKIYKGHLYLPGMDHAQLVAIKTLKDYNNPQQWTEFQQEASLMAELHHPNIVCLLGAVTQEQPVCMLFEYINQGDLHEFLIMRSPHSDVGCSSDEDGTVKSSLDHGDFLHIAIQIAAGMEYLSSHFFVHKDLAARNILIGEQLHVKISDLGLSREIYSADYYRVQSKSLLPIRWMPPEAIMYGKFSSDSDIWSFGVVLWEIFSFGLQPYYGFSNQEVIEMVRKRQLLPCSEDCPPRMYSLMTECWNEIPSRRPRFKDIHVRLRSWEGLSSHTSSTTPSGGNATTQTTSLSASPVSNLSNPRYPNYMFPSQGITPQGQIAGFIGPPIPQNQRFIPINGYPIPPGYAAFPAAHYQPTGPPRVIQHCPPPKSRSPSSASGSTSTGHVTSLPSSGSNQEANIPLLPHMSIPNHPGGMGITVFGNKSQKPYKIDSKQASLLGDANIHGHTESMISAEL
T7 sequence (Q01973 30-937 limits assumed): as above

B1: Clone Mu chimeric ROR1 antibody (antibody, V domains shown)
VH: QVQLQQSGAELVKPGSSVRISCKASGYTITSYDMHWIKQQPGNGLEGIGWIHPGNGKIKYNQKFNGKATLTVDKSSSTAYMQLSSLTSEDSAVYFCARGTTRVFPWFAYWGQGTLVTVSS
VL: QFTLTQPKSVSGSLRSTITIPCERSSGDIGDNYVSWYQQHLGRPPINVIYADDQRPSEVSDRFSGSIDSSSNSASLTITNLQMDDEADYFCQSFDSNFDIPVFGGGTKLTVL
Turning to B1, the binding result is listed as “binds” in [1]; “binds” in assay [2]; “no binding” in the assay with Fz+Kg; “binds” in [3]; “no binding” in assay [4]; “no binding” with Kringle (Kg).

B2: Clone V chimeric ROR1 antibody (antibody, V domains shown)
VH: EVQLVESGGGLVQPGRSLKLSCAASGFSFSNYGMHWIRQAPTKGLEWVASISPTGGNTYYRDSVKGRFTISRDNTKSTLYLQMDSLRSEDTATYYCATDDLYYSGPFAYWGQGTLVTVSS
VL: DIKMTQSPSFLSASVGDRVTINCKASQNITRFLNWYQQELGEAPTLLIYNTNNLQTGIPSRFSGSGSGTDFTLTISSLQPEDVATYFCLQHGSRPRTFGGGTKLELK
For B2, the binding result in assay [1] is on record as “binds”; in assay [2] it was “binds”; with Fz+Kg, “no binding”; in assay [3], “no binding”; in assay [4], “no binding”; in the assay with Kringle (Kg), “no binding”. The binding result with SKW 6.4 GFP and with CLL2 ROR1high was “binds” in each case.

B3: Clone F chimeric ROR1 antibody (antibody, V domains shown)
VH: EVQLVESGGGLVQPGRSLKLSCAASGFIFSEHNMAWVRQAPKKGLEWVATISDDGRNTYYRDSMRGRFTISRENARSTLYLQLDSLRSEDTATYYCASHRYNLFDSWGQGVMVTVSS
VL: DIQMTQSPSFLSASVGDRVTINCKASQNIDRYLNWYQQKLGEAPKRLLYNTNKLQTGIPSRFSGSGSATDFTLTISSLQPEDFATYFCLQYNSLPLTFGSGTKLEIK
The Kd is the concentration at which binding is half-saturated. A lower Kd goes with tighter binding. Broadly, the koff is the rate constant with which the complex falls apart. Higher therefore signals fast dissociation. As usually defined, the kon is the second-order rate constant of association. The low end stands for slow association, the high end for fast association. Consider B3, for which the binding result (in assay [3]; in the assay with Kringle (Kg); in assay [5]; with Q(261)H mutation) was “no binding” throughout. For the same molecule, binding in [6] was put at a Kd of 5.46 nM. For the same molecule, the dissociation rate constant (koff) in assay [6] worked out at 0.000836 s⁻¹. In assay [6], this molecule had a kon of 153000 M⁻¹ s⁻¹. Besides, the Q1 quadrant figure in assay [7] came out at 85.

B4: Clone A chimeric ROR1 antibody (antibody, V domains shown)
VH: QVQLQQSGTELVKPASSVRISCKASGYTLTTNYMHWIRQQPGNGLEWIGWIYPGNGNTKFNHKFDGRTTLTADKSSSIVYMQLSSLTSEDSAVYFCARSDFDYWGQGVMVTVSS
VL: DIQMTQSPSSMSASLGDRVTFTCQASQDIGNNLIWFQQKPGKSPRPLMYFATSLANGVPSRFSGSRSGSDYSLTISSLESEDLADYHCLQYREYPLTFGSGTKLDLK
notes: also called SA1
Take B4: the binding result (in the assay with I(48)Q mutation; with Fz+Kg; in assay [4]; with Kringle (Kg); in assay [8]) was “no binding” each time. This molecule showed a Kd in assay [6] of 1.81 nM. In assay [6], this molecule showed a koff of 0.00104 s⁻¹. For the same molecule, the kon in assay [6] turned out to be 577000 M⁻¹ s⁻¹.
